# Measurements as given in the supplement of paper PMC6757056.
# ± gives the standard deviation of the averaged measurements.
# B1: library; a variant is named by its letters at N, in order (parent)
# chain: GCUGUCACCGGUGUAUUACCCUAGUGGUCGACCGGUCUGAUGAGUCUNNNNNNAGACGAAACAGC
# What was measured:
# hypoxanthine [1] = variants of: B1; test: normalized RNA/DNA level with ligand (relative to sTRSVctl = 100) (log10 (% of sTRSVctl)); ligand: hypoxanthine (xanthine aptamer); higher = less ribozyme self-cleavage, higher mRNA level; settings: ligand concentration (+) RNA-Seq: 5 mM, HEK293T, reporter: mCherry (pCS4076), ligand present: yes
# Summary of the method: (§1)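 HEK293T cells received ligand, where used, 1 h before being transfected with 4 µg per 6-well well of library plasmids encoding reporter-linked ribozyme switches. After 72 h, RNA was extracted with EDTA and sequenced. RNA level was derived from RNA reads per DNA read, normalized to a spiked-in non-cleaving sequence or the top sequences, then scaled and log-transformed. Values were ×100 then log10, the top set was 25 sequences, and the minimum was 100 DNA reads.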
# hypoxanthine [2] = variants of: B1; test: normalized RNA/DNA level without ligand (relative to sTRSVctl = 100) (log10 (% of sTRSVctl)); ligand: hypoxanthine (xanthine aptamer); higher = less ribozyme self-cleavage, higher mRNA level; settings: HEK293T, reporter: mCherry (pCS4076), ligand present: no
# Summary of the method: as §1
Variant,normalized RNA/DNA level with ligand (log10) (hypoxanthine [1]),normalized RNA/DNA level without ligand (log10) (hypoxanthine [2])
GCUGUCACCGGUGUAUUACCCUAGUGGUCGACCGGUCUGAUGAGUCUAUUCAAAGACGAAACAGC,1.91 ± 0.047,1.82 ± 0.038
GCUGUCACCGGUGUAUUACCCUAGUGGUCGACCGGUCUGAUGAGUCUGGAUCCAGACGAAACAGC,1.96 ± 0.049,1.95 ± 0.018
GCUGUCACCGGUGUAUUACCCUAGUGGUCGACCGGUCUGAUGAGUCUGUCCGAAGACGAAACAGC,1.9508 ± 0.00054,1.732 ± 0.013
GCUGUCACCGGUGUAUUACCCUAGUGGUCGACCGGUCUGAUGAGUCUUGCCAUAGACGAAACAGC,1.909 ± 0.0083,1.817 ± 0.015
GCUGUCACCGGUGUAUUACCCUAGUGGUCGACCGGUCUGAUGAGUCUAUCCCAAGACGAAACAGC,1.92 ± 0.03,1.88 ± 0.02
GCUGUCACCGGUGUAUUACCCUAGUGGUCGACCGGUCUGAUGAGUCUGAGUCGAGACGAAACAGC,1.84 ± 0.019,1.38 ± 0.02
GCUGUCACCGGUGUAUUACCCUAGUGGUCGACCGGUCUGAUGAGUCUGGGUUCAGACGAAACAGC,1.95 ± 0.053,1.91 ± 0.095
GCUGUCACCGGUGUAUUACCCUAGUGGUCGACCGGUCUGAUGAGUCUGAGUUAAGACGAAACAGC,1.891 ± 0.0028,1.64 ± 0.056
GCUGUCACCGGUGUAUUACCCUAGUGGUCGACCGGUCUGAUGAGUCUGUAGAUAGACGAAACAGC,1.87 ± 0.092,1.758 ± 0.00084
GCUGUCACCGGUGUAUUACCCUAGUGGUCGACCGGUCUGAUGAGUCUGUUUGCAGACGAAACAGC,1.922 ± 0.016,1.61 ± 0.062
GCUGUCACCGGUGUAUUACCCUAGUGGUCGACCGGUCUGAUGAGUCUUUCGUGAGACGAAACAGC,1.964 ± 0.019,1.7 ± 0.041
GCUGUCACCGGUGUAUUACCCUAGUGGUCGACCGGUCUGAUGAGUCUGGCGACAGACGAAACAGC,1.93 ± 0.12,1.83 ± 0.021
GCUGUCACCGGUGUAUUACCCUAGUGGUCGACCGGUCUGAUGAGUCUUAACACAGACGAAACAGC,1.91 ± 0.05,1.7 ± 0.053
GCUGUCACCGGUGUAUUACCCUAGUGGUCGACCGGUCUGAUGAGUCUUAGUUGAGACGAAACAGC,1.93 ± 0.053,1.707 ± 0.0035
GCUGUCACCGGUGUAUUACCCUAGUGGUCGACCGGUCUGAUGAGUCUCAAUAUAGACGAAACAGC,1.929 ± 0.016,1.811 ± 0.01
GCUGUCACCGGUGUAUUACCCUAGUGGUCGACCGGUCUGAUGAGUCUAAUGCUAGACGAAACAGC,1.92 ± 0.071,1.864 ± 0.011
GCUGUCACCGGUGUAUUACCCUAGUGGUCGACCGGUCUGAUGAGUCUCGGUCUAGACGAAACAGC,1.95 ± 0.034,1.89 ± 0.048
GCUGUCACCGGUGUAUUACCCUAGUGGUCGACCGGUCUGAUGAGUCUUUGGACAGACGAAACAGC,1.95 ± 0.02,1.92 ± 0.043
GCUGUCACCGGUGUAUUACCCUAGUGGUCGACCGGUCUGAUGAGUCUUAUUUAAGACGAAACAGC,1.93 ± 0.07,1.93 ± 0.053
GCUGUCACCGGUGUAUUACCCUAGUGGUCGACCGGUCUGAUGAGUCUAUCGCAAGACGAAACAGC,1.9253 ± 0.0018,1.77 ± 0.028
GCUGUCACCGGUGUAUUACCCUAGUGGUCGACCGGUCUGAUGAGUCUCGGGCAAGACGAAACAGC,1.98 ± 0.049,1.8985 ± 0.0018

Variant,normalized RNA/DNA level with ligand (log10) (hypoxanthine [1]),normalized RNA/DNA level without ligand (log10) (hypoxanthine [2])
GCUGUCACCGGUGUAUUACCCUAGUGGUCGACCGGUCUGAUGAGUCUCUCACGAGACGAAACAGC,1.93 ± 0.024,1.913 ± 0.0027
GCUGUCACCGGUGUAUUACCCUAGUGGUCGACCGGUCUGAUGAGUCUCAGCAAAGACGAAACAGC,1.885 ± 0.01,1.637 ± 0.014
GCUGUCACCGGUGUAUUACCCUAGUGGUCGACCGGUCUGAUGAGUCUAUUCGCAGACGAAACAGC,1.96 ± 0.04,1.89 ± 0.023
GCUGUCACCGGUGUAUUACCCUAGUGGUCGACCGGUCUGAUGAGUCUUACAUUAGACGAAACAGC,1.941 ± 0.0099,1.855 ± 0.016
GCUGUCACCGGUGUAUUACCCUAGUGGUCGACCGGUCUGAUGAGUCUAGAUUUAGACGAAACAGC,1.92 ± 0.021,1.893 ± 0.011
GCUGUCACCGGUGUAUUACCCUAGUGGUCGACCGGUCUGAUGAGUCUCGUCAUAGACGAAACAGC,1.931 ± 0.0026,1.92 ± 0.029
GCUGUCACCGGUGUAUUACCCUAGUGGUCGACCGGUCUGAUGAGUCUUGGCCAAGACGAAACAGC,1.97 ± 0.033,1.92 ± 0.046
GCUGUCACCGGUGUAUUACCCUAGUGGUCGACCGGUCUGAUGAGUCUCGCCCAAGACGAAACAGC,1.96 ± 0.06,1.92 ± 0.041
GCUGUCACCGGUGUAUUACCCUAGUGGUCGACCGGUCUGAUGAGUCUGUUCCUAGACGAAACAGC,1.99 ± 0.012,1.98 ± 0.056
GCUGUCACCGGUGUAUUACCCUAGUGGUCGACCGGUCUGAUGAGUCUUGGUGUAGACGAAACAGC,1.95 ± 0.067,1.599 ± 0.0035
GCUGUCACCGGUGUAUUACCCUAGUGGUCGACCGGUCUGAUGAGUCUUGCGAUAGACGAAACAGC,1.933 ± 0.011,1.79 ± 0.081
GCUGUCACCGGUGUAUUACCCUAGUGGUCGACCGGUCUGAUGAGUCUAUUCUGAGACGAAACAGC,1.85 ± 0.061,1.61 ± 0.039
GCUGUCACCGGUGUAUUACCCUAGUGGUCGACCGGUCUGAUGAGUCUCCGAAUAGACGAAACAGC,1.9 ± 0.083,1.66 ± 0.028
GCUGUCACCGGUGUAUUACCCUAGUGGUCGACCGGUCUGAUGAGUCUUGGGAGAGACGAAACAGC,1.9 ± 0.054,1.55 ± 0.044
GCUGUCACCGGUGUAUUACCCUAGUGGUCGACCGGUCUGAUGAGUCUAUCUCGAGACGAAACAGC,1.89 ± 0.024,1.59 ± 0.06
GCUGUCACCGGUGUAUUACCCUAGUGGUCGACCGGUCUGAUGAGUCUUGGCGGAGACGAAACAGC,1.97 ± 0.14,1.69 ± 0.024
GCUGUCACCGGUGUAUUACCCUAGUGGUCGACCGGUCUGAUGAGUCUAAGCUCAGACGAAACAGC,1.975 ± 0.002,1.959 ± 0.01
GCUGUCACCGGUGUAUUACCCUAGUGGUCGACCGGUCUGAUGAGUCUUUGUAAAGACGAAACAGC,1.976 ± 0.014,1.9 ± 0.042
GCUGUCACCGGUGUAUUACCCUAGUGGUCGACCGGUCUGAUGAGUCUUAGACGAGACGAAACAGC,1.8696 ± 0.00011,1.642 ± 0.013
GCUGUCACCGGUGUAUUACCCUAGUGGUCGACCGGUCUGAUGAGUCUCCCCAGAGACGAAACAGC,1.84 ± 0.062,1.77 ± 0.047
GCUGUCACCGGUGUAUUACCCUAGUGGUCGACCGGUCUGAUGAGUCUCCCCAUAGACGAAACAGC,1.93 ± 0.036,1.87 ± 0.046
